Assay [1] deals with T1, recombinant cynomolgus BCMA Fc(kih) (cynomolgus, UniProt A0A2K5UD97 4-51). Description: ratio of SPR KD values (KD cynomolgus BCMA / KD human BCMA), reference human BCMA Fc(kih). How it is done: (§1) The avidity of the interaction between anti-BCMA antibodies and recombinant BCMA Fc(kih) (human and cynomolgus) was determined. Biotinylated recombinant human and cynomolgus BCMA Fc(kih) were directly coupled on a SA chip following instructions (Biacore, Freiburg/Germany). The immobilization level ranged from 200 to 700 RU. […] The dissociation was monitored for 180 seconds. Bulk refractive index differences were corrected for by subtracting the response obtained on the reference flow cell. Here, the anti-BCMA antibodies were flown over an empty surface previously activated and deactivated as described in the standard amine coupling kit. Apparent kinetic constants were derived using the Biacore T200 Evaluation Software (vAA, Biacore AB, Uppsala/Sweden), to fit rate equations for 1:1 Langmuir binding by numerical integration, despite the bivalency of the interaction for comparison purposes. The affinity of the interaction between anti-BCMA antibodies and recombinant human BCMA Fc(kih) was also determined. Anti-human Fab antibody (GE Healthcare) was directly coupled on a CMS chip at pH 5.0 using the standard amine coupling kit (Biacore, Freiburg/Germany). The immobilization level was about 6500 RU. […] The dissociation was monitored for 120 seconds. Bulk refractive index differences were corrected for by subtracting the response obtained on reference flow cell. […] Kinetic constants were derived using the Biacore T100 Evaluation Software (vAA, Biacore AB, Uppsala/Sweden), to fit rate equations for 1:1 Langmuir binding by numerical integration (Table 4).
T1 sequence (A0A2K5UD97 entry or part of it): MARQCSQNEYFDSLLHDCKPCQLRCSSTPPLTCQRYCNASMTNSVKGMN
Based on the affinity values described in Example 2, the affinity of anti-BCMA antibodies to human BCMA vs. cynomolgus BCMA were compared and cyno/hu affinity ratio (gap) values were calculated (Table 5).

The next assay deals with T2, human BCMA on cells (human, UniProt Q02223 1-184).
T2 construct: whole, on cells; also called huBCMA on HEK cells; HEK-huBCMA cells
T2 sequence (looked up): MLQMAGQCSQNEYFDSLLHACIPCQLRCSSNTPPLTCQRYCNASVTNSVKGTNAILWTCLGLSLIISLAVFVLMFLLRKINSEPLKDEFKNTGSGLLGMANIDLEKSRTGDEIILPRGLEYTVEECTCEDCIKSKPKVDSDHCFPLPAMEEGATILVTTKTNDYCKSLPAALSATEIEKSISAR
Kind of assay: flow cytometry on HEK-huBCMA cells, PE anti-human Fc detection. Background: A flow cytometer gives signals particle by particle.

Assay [2] has as its target T3, recombinant human BCMA Fc(kih) (human, UniProt Q02223 4-53, site-specifically biotinylated at the C-terminal avi-tag ; Biotin on the avi-tag at the C-terminus of the Fc knob chain (tag and Fc left out).).
T3 construct: Knobs-into-holes heterodimer carrying one BCMA ectodomain; also called huBCMA Fc(kih); huBCMA; not shown: human IgG1 hinge-Fc knob chain with C-terminal avi-tag, and the unfused Fc hole chain
T3 chain: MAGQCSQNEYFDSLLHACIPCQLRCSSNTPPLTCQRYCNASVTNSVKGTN
Kind of assay: SPR one-shot kinetics (ProteOn XPR36), IgG captured from HEK293 supernatant via anti-human F(ab)2, BCMA as analyte. How it is done:
(§2) All experiments were performed at 25° C. using PBST as running buffer (10 mM PBS, pH 7.4 and 0.005% (v/v) Tween®20). A ProteOn XPR36 biosensor equipped with GLC and GLM sensor chips and coupling reagents (10 mM sodium acetate, pH 4.5, sulfo-N-hydroxysuccinimide, 1-ethyl-3-(3-dimethylaminopropyl)-carbodiimide hydrochloride [EDC] and ethanolamine) was purchased from BioRad Inc. (Hercules, Calif.). Immobilizations were performed at 30 μl/min. on a GLM chip. pAb (goat) anti hu IgG, F(ab)2 specific Ab (Jackson) was coupled in vertical direction using a standard amine-coupling procedure: all six ligand channels were activated for 5 min with a mixture of EDC (200 mM) and sulfo-NHS (50 mM). Immediately after the surfaces were activated, pAb (goat) anti hu IgG, F(ab)2 specific antibody (50 μg/ml, 10 mM sodium acetate, pH 5) was injected across all six channels for 5 min. Finally, channels were blocked with a 5 min injection of 1 M ethanolamine-HCl (pH 8.5). […] One-shot kinetic measurements were performed by injection of a dilution series of human, cyno and mouse BCMA (50, 10, 2, 0.4, 0.08, 0 nM, 50 μl/min) for 3 min along the vertical channels. Dissociation was monitored for 5 min Kinetic data were analyzed in ProteOn Manager v. 2.1. Processing of the reaction spot data involved applying an interspot-reference and a double-reference step using an inline buffer blank (Myszka, 1999). The processed data from replicate one-shot injections were fit to a simple 1:1 Langmuir binding model without mass transport (O'Shannessy et al., 1993).

Assay [3] has as its target T1, recombinant cynomolgus BCMA Fc(kih). Described as above. How it is done:
as §2

Assay [4] deals with T4, murine BCMA extracellular domain, monomeric Fc-fusion (murine, UniProt O88472 1-49, site-specifically biotinylated at the C-terminal avi-tag).
T4 construct: extracellular domain; also called muBCMA; mouse BCMA; not shown: hinge and Fc of human IgG1, knob chain; avi-tag; unfused human IgG1 Fc portion (hole chain)
T4 sequence (O88472 whole entry, the tested form may be a part): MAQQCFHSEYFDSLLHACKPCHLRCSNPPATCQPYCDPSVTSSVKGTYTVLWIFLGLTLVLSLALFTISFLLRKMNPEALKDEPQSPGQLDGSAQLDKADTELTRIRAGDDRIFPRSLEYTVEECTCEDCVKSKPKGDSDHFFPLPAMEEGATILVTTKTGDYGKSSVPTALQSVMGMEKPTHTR
The assay is described as above. Here is the method:
as §2

For assay [5], the target named is T3, recombinant human BCMA Fc(kih). Description: SPR (Biacore T200), IgG captured via anti-human Fab, BCMA Fc(kih) as analyte, 1:1 Langmuir fit. Here is the method: as §1, with “Assessment of binding of anti-BCMA antibodies to recombinant BCMA by surface plasmon resonance (SPR) as follow. […] The avidity” for “The avidity”
Assay [6] addresses T1, recombinant cynomolgus BCMA Fc(kih). The assay is described as above. How it is done:
as §1, with “Assessment of binding of anti-BCMA antibodies to recombinant BCMA by surface plasmon resonance (SPR) as follow. […] The avidity” for “The avidity”

Several values for one entry are separate records, joined by “and”; a condition that tells them apart may be missing. Equal values may be shown once.

The term EC50 denotes the concentration needed to bring the measured effect to its halfway point. For orientation: Kd means a measure of binding affinity in units of concentration. By koff is commonly meant a measure of how fast the partners let go of each other. For orientation: kon means the rate constant with which the complex forms.

B1: Mab 27 IgG (antibody, V domains shown)
VH: EVQLLESGGGLVQPGGSLRLSCAASGFTFSSAPMGWVRQAPGKGLEWVSAISYIGHTYYADSVKGRFTISRDNSKNTLYLQMNSLRAEDTAVYYCAKVLGWFDYWGQGTLVTVSS
VL: EIVLTQSPGTLSLSPGERATLSCRASQSVSEYYLAWYQQKPGQAPRLLIEHASTRATGIPDRFSGSGSGTDFTLTISRLEPEDFAVYYCQQYGYPPDFTFGQGTKVEIK
Regarding B1, the Affinity cyno/hu gap in assay [1] was 12.7 fold. Also, the EC50 with human BCMA on cells is 10.6 nM and 1.52 µg/mL. Also, the Kd in assay [2] worked out at 0.39 pM; in assay [3], 100 pM; in assay [4] it was 970 pM; in assay [5] it was 165 pM; in assay [6], 2110 pM. Also, the values for the koff in assay [5] and in assay [6] were 5.93e-05 s⁻¹ and 0.000455 s⁻¹, respectively. The results for the kon in assay [5] and in assay [6] were 359000 M⁻¹ s⁻¹ and 216000 M⁻¹ s⁻¹, respectively.

For the origin of these results see patent US20220002427A1 (ENGMAB SARL, published 2022).
